Assay [1] deals with human SKBR3 breast cancer cells. Kind of assay: Soft-Agar Colony Formation Assay (anchorage-independent growth). It is filed as cell-based. The conditions noted are these: RANKL 1 μg/ml. The method, then:
a, Western blotting for phosphorylated (P) IKKα, total IKKα, phosphorylated (P) p65 NFκB, total p65 NFκB, phosphorylated (P) IκBα, and total IκBα in isolated primary mouse mammary gland epithelial cells (MECs) in response to RANKL stimulation (1 μg/ml). β-actin is shown as loading control. b, Western blotting for IKKα, IKKβ, IKKγ, phosphorylated (P) p65 NFκB, total p65 NFκB, phosphorylated (P) IκBα, and total IκBα in pooled late stage mammary adenocarconimas (n=4 for each lane) that developed in control, RANK^Δmam and IKKΔ^Δmam females. β-actin is shown as loading control c, Expression of RANK, CyclinD1, and p21 mRNA in late stage mammary adenocacinomas that developed in control, RANK^Δmam, and IKKα^Δmam females. Expression was determined by qRT-PCR. Data are mean values+/−sem. n=4 per group. d, Soft-Agar Colony Formation Assay. Growth of human SKBR3 breast cancer cells in soft agar in response to stimulation with RANKL (1 μg/ml) or EGF (100 ng/ml). Anchorage-independent, macroscopic colonies formed after 18 days in culture with RANKL, which was prevented by the decoy receptor OPG (1 μg/ml). […] Apoptosis was detected by immunostaining for active Caspase 3. f, Apoptotic nuclei of epithelial cells (arrows) are shown for representative mammary gland sections. Magnifications×40. g, Quantification of mammary epithelial apoptosis. A minimum of 5000 nuclei was counted for each mouse. […]

The subject of assay [2] is SKBR3 breast cancer cells. Kind of assay: Growth curve of SKBR3 cells, live cell counting. The format is cell-based, human. The settings on record: RANKL 1 μg/ml, 3 days. As to the method: (§1) a, Western blotting for phosphorylated (P) p65 NFκB, total p65 NFκB, phosphorylated (P) IκBα, total IκBα, phosphorylated (P) ERK1/2, total ERK1/2, phosphorylated (P) p38-MAPK, and p38-MAPK in human SKBR3 breast cancer cells in response to RANKL stimulation (1 μg/ml). Data are representative of 3 experiments. b, Growth curve of SKBR3 breast cancer cells cultured in normal growth medium (control, DMEM supplemented with 10% FCS) or in the presence of RANKL (1 μg/ml). Cell numbers were determined by counting live cells (trypan blue-exclusion) over 3 days. c, Onset of palpable mammary tumors in NFATc1^Δmam (n=10) and age matched littermate control (n=16) females treated with MPA pellets and DMBA. Data are shown as percentage of tumor free mice after the last DMBA challenge. No significant difference was found. d, Quantification of NFATc1 mRNA expression in purified mammary epithelial cells (MECs) and MPA-driven mammary tumors from NFATc1^Δmam and littermate control females. mRNA was determined by qRT-PCR. Data are shown as fold change compared to control (+/−sem). n=5 Per group. *P<0.05 (Student's t-test).

Assay [3] deals with human SKBR3 breast cancer cells. Kind of assay: Western blotting of RANKL-stimulated SKBR3 cells. The settings on record: RANKL 1 μg/ml. It is filed as cell-based. The method, then: as §1
The human epithelial breast tumor cell line SKBR3 and primary non-transformed mouse mammary epithelial cells were left untreated or stimulated with recombinant murine RANKL^ref. 9. Adenocarcinomas were isolated from control and mutant mice and total protein lysates prepared. […]

B1: RANKL: recombinant RANKL protein, ligand of RANK, used as stimulus (1 μg/ml or 1 μg i.p.) (protein, UniProt O35235 139-316, looked up)
Tumor necrosis factor ligand …: FSGAPAMMEGSWLDVAQRGKPEAQPFAHLTINAASIPSGSHKVTLSSWYHDRGWAKISNMTLSNGKLRVNQDGFYYLYANICFRHHETSGSVPTDYLQLMVYVVKTSIKIPSSHNLMKGGSTKNWSGNSEFHFYSINVGGFFKLRAGEEISIQVSNPSLLDPDQDATYFGAFKVQDID
Consider B1, for which the “growth of SKBR3 cells in soft agar” value in assay [1] is given as “induced growth of SKBR3 cells in soft agar”. Further, the “proliferation of SKBR3 cells” value in assay [2] was “induced NFκB, p38-MAPKs and ERK activation and proliferation”. In assay [3], the “NFκB, p38-MAPKs and ERK activation” value was “induced NFκB, p38-MAPKs and ERK activation”.

For the origin of these results see patent publication US10143747B2, “Breast cancer therapeutics” (IMBA—INSTITUT FÜR MOLEKULARE BIOTECHNOLOGIE GMBH, priority 2010, dated 2018).
